What all share (conditions): both partners purified
The target of test [1] is T1, GST-BSK6 (Arabidopsis, UniProt Q9M324 1-490).
T1 construct: BSK6, Arabidopsis; full-length coding region cloned into pGEX4-T-1; source: E. coli BL21 (DB3); not shown: GST, N-terminal, kept
Kind of test: pull-down; in vitro (Fig. 4e): Sumo-His-RTFL18 on Ni-NTA beads, then GST or GST-BSK3/BSK6, 4 °C 2 h, 1 × PBS with 1 mM DTT; blot anti-GST, anti-His.

In test [2] the target is T2, GST-BSK3 WT (Arabidopsis, UniProt Q8W4L3 1-489).
T2 construct: BSK3, Arabidopsis; full-length coding region cloned into pGEX4-T-1; source: E. coli BL21 (DB3), purified; not shown: GST, N-terminal, kept
The test is described as above.

The target in test [3] is T2, GST-BSK3 WT. Kind of test: pull-down; in vitro (Fig. 4l): purified GST-BSK3 WT on glutathione beads, then His-RTFL18 (WT, M1, M2), 4 °C 2 h, 1 × PBS with 1 mM DTT; blot anti-His, anti-GST.

T2 sequence (Q8W4L3 whole entry): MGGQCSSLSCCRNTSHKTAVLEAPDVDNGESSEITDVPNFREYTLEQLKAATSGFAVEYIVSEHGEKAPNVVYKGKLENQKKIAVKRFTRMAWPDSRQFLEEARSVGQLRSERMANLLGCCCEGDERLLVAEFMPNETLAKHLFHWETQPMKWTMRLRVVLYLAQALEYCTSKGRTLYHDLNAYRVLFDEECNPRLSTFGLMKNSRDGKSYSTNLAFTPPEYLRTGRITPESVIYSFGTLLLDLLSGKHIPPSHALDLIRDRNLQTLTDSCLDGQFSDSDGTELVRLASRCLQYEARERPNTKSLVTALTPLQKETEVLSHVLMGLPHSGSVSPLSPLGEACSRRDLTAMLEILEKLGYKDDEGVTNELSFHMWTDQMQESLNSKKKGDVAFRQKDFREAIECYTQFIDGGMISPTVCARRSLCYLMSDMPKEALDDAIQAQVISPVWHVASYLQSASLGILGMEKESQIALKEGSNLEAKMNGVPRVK
T1 sequence (Q9M324 whole entry): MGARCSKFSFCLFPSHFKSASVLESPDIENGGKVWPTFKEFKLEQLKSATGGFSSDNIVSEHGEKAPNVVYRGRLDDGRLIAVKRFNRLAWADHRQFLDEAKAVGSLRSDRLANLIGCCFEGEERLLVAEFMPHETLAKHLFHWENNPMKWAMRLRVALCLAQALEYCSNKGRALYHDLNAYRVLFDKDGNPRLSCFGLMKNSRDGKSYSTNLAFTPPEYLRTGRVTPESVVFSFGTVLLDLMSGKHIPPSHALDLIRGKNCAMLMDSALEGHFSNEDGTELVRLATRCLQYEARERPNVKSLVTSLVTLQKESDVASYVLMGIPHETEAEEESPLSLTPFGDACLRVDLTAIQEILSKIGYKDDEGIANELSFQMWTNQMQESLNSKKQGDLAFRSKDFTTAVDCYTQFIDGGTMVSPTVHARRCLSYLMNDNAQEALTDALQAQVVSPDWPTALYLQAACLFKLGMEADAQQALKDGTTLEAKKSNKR

B1: Sumo-His-RTFL18 (peptide, UniProt Q6X5V0 1-51, looked up)
chain: MEMKRVMMSSAERSKEKKRSISRRLGKYMKEQKGRIYIIRRCMVMLLCSHD
notes: RTFL18 (DVL1), Arabidopsis; full-length coding region cloned into a pET-SUMO vector; source: E. coli BL21 (DB3); not shown: SUMO, N-terminal, kept; His, N-terminal, kept
For the molecule B1, the binding result in test [1] and in test [2] was “binds” each time.

B2: His-RTFL18 WT (peptide, UniProt Q6X5V0 1-51, looked up)
chain: MEMKRVMMSSAERSKEKKRSISRRLGKYMKEQKGRIYIIRRCMVMLLCSHD
notes: RTFL18 (DVL1), Arabidopsis; full-length coding region cloned into a pET-SUMO vector; also called 6His-RTFL18 WT (wild type); source: E. coli BL21 (DB3), purified; not shown: His6, N-terminal, kept
As for B2, in test [3], the binding result is “binds”.

These data come from PMC10613268, “Shade-induced RTFL/DVL peptides negatively regulate the shade response by directly interacting with BSKs in Arabidopsis” (Nature Communications, 2023).
